{"source": "patent US20210171580", "key": {"[1]": {"system": "M402 (synthetic (M160-nuc with G46D and 3'-5' exo reactivated))", "sequence (chain, as listed by the source G46D)": "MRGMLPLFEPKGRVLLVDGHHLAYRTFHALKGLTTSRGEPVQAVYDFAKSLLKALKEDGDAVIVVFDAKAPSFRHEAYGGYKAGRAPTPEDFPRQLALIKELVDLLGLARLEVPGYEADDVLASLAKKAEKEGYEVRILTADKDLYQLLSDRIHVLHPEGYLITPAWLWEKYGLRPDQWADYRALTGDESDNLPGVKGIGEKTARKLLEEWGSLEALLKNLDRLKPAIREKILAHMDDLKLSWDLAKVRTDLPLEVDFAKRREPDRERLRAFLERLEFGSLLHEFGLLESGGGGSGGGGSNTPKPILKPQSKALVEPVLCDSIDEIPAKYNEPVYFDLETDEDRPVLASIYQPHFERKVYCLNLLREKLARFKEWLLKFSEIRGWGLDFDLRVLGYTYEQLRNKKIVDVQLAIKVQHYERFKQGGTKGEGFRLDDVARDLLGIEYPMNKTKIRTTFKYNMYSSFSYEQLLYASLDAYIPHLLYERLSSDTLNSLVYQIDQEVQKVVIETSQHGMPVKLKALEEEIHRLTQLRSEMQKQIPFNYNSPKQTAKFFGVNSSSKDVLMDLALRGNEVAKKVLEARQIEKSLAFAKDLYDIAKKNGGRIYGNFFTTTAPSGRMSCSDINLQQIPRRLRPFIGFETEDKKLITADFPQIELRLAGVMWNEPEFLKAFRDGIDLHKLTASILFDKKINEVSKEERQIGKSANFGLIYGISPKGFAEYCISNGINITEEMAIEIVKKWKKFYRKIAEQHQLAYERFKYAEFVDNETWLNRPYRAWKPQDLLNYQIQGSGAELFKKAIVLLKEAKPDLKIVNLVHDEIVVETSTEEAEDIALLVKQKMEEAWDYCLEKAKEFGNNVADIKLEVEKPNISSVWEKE", "conditions": "vs M160-nuc"}, "[2]": {"system": "M401 (synthetic (M160-nuc A339E))", "sequence (chain, as listed by the source A339E)": "as the sequence (chain, as listed by the source G46D) above, with D46G counted along it", "conditions": "vs M160-nuc"}, "[3]": {"system": "M403 (synthetic (M160-nuc, both nucleases inactive))", "sequence (chain, as listed by the source)": "as the sequence (chain, as listed by the source G46D) above, with E339A counted along it", "conditions": "vs M160-nuc"}, "[4]": {"system": "M160-nuc (synthetic (shuffled viral polymerase fused to Taq 5'-3' nuclease domain))", "conditions": "reference"}, "[5]": {"system": "M402 (synthetic (M160-nuc with G46D and 3'-5' exo reactivated))", "assay": "cleavage_in_vitro", "conditions": "relative to Pfu polymerase, 37 C, 4 mM MgCl2"}, "[6]": {"system": "M401 (synthetic (M160-nuc A339E))", "assay": "cleavage_in_vitro", "conditions": "relative to Pfu polymerase, 37 C, 4 mM MgCl2"}, "[7]": {"system": "M160 (synthetic (shuffled viral Family A DNA polymerase))", "assay": "EMSA", "conditions": "20 mM Tris pH 8.8, 10 mM NaCl, 5 mM MgCl2, 37 C; lacks 5' nuclease domain"}, "[8]": {"system": "M502 (synthetic (M160-nuc mutant W777C D781A D622N Q627N))", "sequence (chain, as listed by the source W777C D781A D622N Q627N)": "as the sequence (chain, as listed by the source G46D) above, with D46G, E339A, D622N, Q627N, W777C, D781A counted along it", "assay": "EMSA", "conditions": "20 mM Tris pH 8.8, 10 mM NaCl, 5 mM MgCl2, 37 C; at assay sensitivity limit"}, "[9]": {"system": "M160-nuc (synthetic (shuffled viral polymerase fused to Taq 5'-3' nuclease domain))", "assay": "EMSA", "conditions": "20 mM Tris pH 8.8, 10 mM NaCl, 5 mM MgCl2, 37 C"}, "[10]": {"conditions": "substrate taken from general polymerase assay"}, "[11]": {"conditions": "50 C, substrate taken from general RT assay"}}, "data": [{"substance": "primed M13mp18 DNA", "values": [{"measurement": "relative enzyme activity (relative pol activity)", "setting": "[1]; [10]", "value": 1.05}, {"measurement": "relative enzyme activity (relative pol activity)", "setting": "[2]; [10]", "value": 0.91}, {"measurement": "relative enzyme activity (relative pol activity)", "setting": "[3]; [10]", "value": 0.72}, {"measurement": "relative enzyme activity (relative pol activity)", "setting": "[4]; [10]", "value": 1}]}, {"substance": "poly(A)/oligo(dT)20", "values": [{"measurement": "relative enzyme activity (relative RT activity)", "setting": "[1]; [11]", "value": 0.98}, {"measurement": "relative enzyme activity (relative RT activity)", "setting": "[2]; [11]", "value": 1.02}, {"measurement": "relative enzyme activity (relative RT activity)", "setting": "[3]; [11]", "value": 1.03}, {"measurement": "relative enzyme activity (relative RT activity)", "setting": "[4]; 50 C", "value": 1}]}, {"substance": "59-mer single-stranded oligonucleotide", "values": [{"measurement": "relative enzyme activity (relative ssExo activity)", "setting": "[5]", "value": 0.89}, {"measurement": "relative enzyme activity (relative ssExo activity)", "setting": "[6]", "value": 0.76}]}, {"substance": "primed-template DNA (Yamagami et al. 2014)", "values": [{"measurement": "Kd", "setting": "[7]", "value": 946, "unit": "nM"}, {"measurement": "Kd", "setting": "[8]", "value": "< 6.1", "unit": "nM"}, {"measurement": "Kd", "setting": "[9]", "value": 78.9, "unit": "nM"}]}]}
